Assay results reported in publication PMC11211670 (mLife, 2024).

Legend:
[1] = biological target: the molecule itself; assay: cryo-electron micrographs of filaments; purified ecCTPS^helix12+ in the product state (CTP); filaments seen in cryo samples
[2] = biological target: the molecule itself; assay: cryo-EM structure; 7 uM ecCTPS incubated with 0.58 mM DON, 1 mM CTP, 0.5 mM NADH and 10 mM MgCl2 for 30 min at 0 °C; single particle analysis of filaments, D2 symmetry, mask on the central tetramer

Protein	binding result [1]	stoichiometry N [2]
ecCTPS with an inserted hCTPS helix 12 (ecCTPS^helix12+) (enzyme, Escherichia coli | human, E. coli CTP synthase, the stretch before the insertion; Helix 12 of human CTPS1, inserted; H346 and W349 of the variant correspond to H355 and W358 of hCTPS1; E. coli CTP synthase, the stretch after the insertion; It ends with HHHHHH, which is written here as the tag; also called engineered ecCTPS) MTTNYIFVTGGVVSSLGKGIAAASLAAILEARGLNVTIMKLDPYINVDPGTMSPIQHGEVFVTEDGAETDLDLGHYERFIRTKMSRRNNFTTGRIYSDVLRKERRGDYLGATVQVIPHITNAIKERVLEGGEGHDVVLVEIGGTVGDIESLPFLEAIRQMAVEIGREHTLFMHLTLVPYMAASGEVKTKPTQHSVKELLSIGIQPDILICRSDRAVPANERAKIALFCNVPEKAVISLKDVDSIYKIPGLLKSQGLDDYICKRFSLNCPEANLSEWEQVIFEEANPVSEVTIGMVGKYIELPDAYKSVIEALKHGGLKNRVSVNIKLIDSQDVETRGVEEEPVRYHEAWQILKGLDAILVPGGFGYRGVEGMITTARFARENNIPYLGICLGMQVALIDYARHVANMENANSTEFVPDCKYPVVALITEWRDENGNVEVRSEKSDLGGTMRLGAQQCQLVDDSLVRQLYNAPTIVERHRHRYEVNNMLLKQIEDAGLRVAGRSGDDQLVEIIEVPNHPWFVACQFHPEFTSTPRDGHPLFAGFVKAASEFQKRQAK	binds	–
Escherichia coli CTP synthase (cytidine triphosphate synthase) (enzyme, UniProt P0A7E5 1-545, looked up, CTP synthase of Escherichia coli, full-length gene in pET28a; In the cryo-EM sample it forms tetramers that stack into filaments; also called ecCTPS; wild-type ecCTPS; source: E. coli Transetta (DE3), purified (Ni-Agarose, Superose 6 Increase)) MTTNYIFVTGGVVSSLGKGIAAASLAAILEARGLNVTIMKLDPYINVDPGTMSPIQHGEVFVTEDGAETDLDLGHYERFIRTKMSRRNNFTTGRIYSDVLRKERRGDYLGATVQVIPHITNAIKERVLEGGEGHDVVLVEIGGTVGDIESLPFLEAIRQMAVEIGREHTLFMHLTLVPYMAASGEVKTKPTQHSVKELLSIGIQPDILICRSDRAVPANERAKIALFCNVPEKAVISLKDVDSIYKIPGLLKSQGLDDYICKRFSLNCPEANLSEWEQVIFEEANPVSEVTIGMVGKYIELPDAYKSVIEALKHGGLKNRVSVNIKLIDSQDVETRGVEILKGLDAILVPGGFGYRGVEGMITTARFARENNIPYLGICLGMQVALIDYARHVANMENANSTEFVPDCKYPVVALITEWRDENGNVEVRSEKSDLGGTMRLGAQQCQLVDDSLVRQLYNAPTIVERHRHRYEVNNMLLKQIEDAGLRVAGRSGDDQLVEIIEVPNHPWFVACQFHPEFTSTPRDGHPLFAGFVKAASEFQKRQAK	–	4
